Assay in all cases: SPR; KD relative to WT C2;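 also: biacore SPR at 37 °C, anti-C2 mAbs captured on an anti-human IgG chip, alanine or serine C2 surface mutants tested, KD from 1:1 fit compared with wild-type C2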
The target of one assay is T1, human C2 R493A (human, UniProt P06681 21-752).
T1 sequence: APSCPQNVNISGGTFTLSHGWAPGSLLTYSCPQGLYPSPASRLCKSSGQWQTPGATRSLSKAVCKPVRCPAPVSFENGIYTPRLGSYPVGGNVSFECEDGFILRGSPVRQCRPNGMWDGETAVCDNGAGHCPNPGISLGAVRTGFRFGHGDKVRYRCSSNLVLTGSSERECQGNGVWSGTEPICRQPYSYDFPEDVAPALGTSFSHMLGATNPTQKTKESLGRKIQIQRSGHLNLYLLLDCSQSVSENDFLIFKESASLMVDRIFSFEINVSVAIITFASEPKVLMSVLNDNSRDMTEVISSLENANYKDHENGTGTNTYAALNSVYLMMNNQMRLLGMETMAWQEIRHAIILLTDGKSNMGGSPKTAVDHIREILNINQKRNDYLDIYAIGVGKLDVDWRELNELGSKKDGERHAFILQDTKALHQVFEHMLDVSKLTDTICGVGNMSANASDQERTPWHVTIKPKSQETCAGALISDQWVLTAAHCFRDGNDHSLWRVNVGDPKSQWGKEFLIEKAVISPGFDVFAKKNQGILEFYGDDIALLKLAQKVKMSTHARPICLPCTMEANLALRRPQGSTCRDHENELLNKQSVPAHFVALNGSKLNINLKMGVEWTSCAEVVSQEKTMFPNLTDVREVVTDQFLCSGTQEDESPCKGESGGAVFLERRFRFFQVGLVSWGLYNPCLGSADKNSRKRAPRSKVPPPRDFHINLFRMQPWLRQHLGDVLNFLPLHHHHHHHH

The next assay addresses T2, human C2 A436S (human, UniProt P06681 21-752).
T2 sequence: T1 sequence with A416S, A473R

The target in another assay is T3, human C2 R434A (human, UniProt P06681 21-752).
T3 sequence: T1 sequence with R414A, A473R

Another assay deals with T4, human C2 E267A (human, UniProt P06681 21-752).
T4 sequence: T1 sequence with E247A, A473R

Where a chain is given by its changes, count along the chain named.

B1: RF16-214 (antibody, V domains shown)
VH: EVQLLESGGGLVQPGGSLRLSCAASGFTFSWYQMMWVRQAPGKGLEWVSRIYPSGGGTAYADSVKGRFTISRDNSKNTLYLQMNSLRAEDTAVYYCARDAGYGDNWGQGTLVTVSS
VL: QSALTQPPSVSVSPGQTASITCSGDKLGEKYASWYQQKAGQSPVMVIYQDRKRPSGIPERFSGSNSGNTATLTISGTQAMDEADYYCQAWDTRAVVFGGGTKLTVLG
On to B1, for which the Fold diff with human C2 R493A was determined as 1 fold; with human C2 A436S, 1 fold; with human C2 R434A, 7 fold; with human C2 E267A, 1 fold.
